Residue numbers refer to the chain shown, from its start.
B1: BAP049-hum13 (antibody, human IgG4 S228P, kappa)
heavy chain: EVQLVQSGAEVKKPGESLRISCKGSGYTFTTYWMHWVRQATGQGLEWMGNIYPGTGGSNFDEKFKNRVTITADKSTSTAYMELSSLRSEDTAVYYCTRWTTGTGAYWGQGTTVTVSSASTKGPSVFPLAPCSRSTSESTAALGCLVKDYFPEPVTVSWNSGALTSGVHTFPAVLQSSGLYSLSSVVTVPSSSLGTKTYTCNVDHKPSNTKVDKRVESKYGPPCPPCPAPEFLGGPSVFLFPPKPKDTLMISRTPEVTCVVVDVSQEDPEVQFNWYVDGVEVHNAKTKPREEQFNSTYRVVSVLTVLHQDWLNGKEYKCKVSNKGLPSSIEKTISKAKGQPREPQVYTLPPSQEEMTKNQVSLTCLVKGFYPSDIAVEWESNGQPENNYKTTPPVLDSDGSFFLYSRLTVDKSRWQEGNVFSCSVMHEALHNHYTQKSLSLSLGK
light chain: DVVMTQSPLSLPVTLGQPASISCKSSQSLLDSGNQKNFLTWYQQKPGKAPKLLIYWASTRESGVPSRFSGSGSGTDFTFTISSLEAEDAATYYCQNDYSYPYTFGQGTKVEIKRTVAAPSVFIFPPSDEQLKSGTASVVCLLNNFYPREAKVQWKVDNALQSGNSQESVTEQDSKDSTYSLSSTLTLSKADYEKHKVYACEVTHQGLSSPVTKSFNRGEC
notes: also called Clone No. 13
B2: Chi mAb (Tyr) (antibody, human IgG4 S228P, kappa, V domains shown)
VH: QVQLQQSGSELVRPGASVKLSCKASGYTFTTYWMHWVRQRPGQGLEWIGNIYPGTGGSNFDEKFKNRTSLTVDTSSTTAYMHLASLTSEDSAVYYCTRWTTGTGAYWGQGTTVTVSS
VL: DIVMTQSPSSLTVTAGEKVTMSCKSSQSLLDSGNQKNFLTWYQQKPGQPPKLLIFWASTRESGVPDRFTGSGSVTDFTLTISSVQAEDLAVYYCQNDYSYPYTFGQGTKVEIKR
notes: also called BAP049-chi-Y; Chi (Tyr)
B3: murine anti-PD-1 mAb BAP049 (antibody, V domains shown)
VH: B2 VH with T112L, S117A
VL: DIVMTQSPSSLTVTAGEKVTMSCKSSQSLLDSGNQKNFLTWYQQKPGQPPKLLIFWASTRESGVPDRFTGSGSVTDFTLTISSVQAEDLAVYYCQNDYSYPCTFGGGTKLEIK
notes: the murine constant regions are not described; also called Mu mAb; murine mAb BAP049
B4: BAP049-hum03 (antibody, human IgG4 S228P, kappa, V domains shown)
VH: EVQLVQSGAEVKKPGESLRISCKGSGYTFTTYWMHWIRQSPSRGLEWLGNIYPGTGGSNFDEKFKNRFTISRDNSKNTLYLQMNSLRAEDTAVYYCTRWTTGTGAYWGQGTTVTVSS
VL: DIQMTQSPSSLSASVGDRVTITCKSSQSLLDSGNQKNFLTWYQQKPGQAPRLLIYWASTRESGIPPRFSGSGYGTDFTLTINNIESEDAAYYFCQNDYSYPYTFGQGTKVEIKR
notes: also called Clone No. 3
B5: BAP049-hum10 (antibody, human IgG4 S228P, kappa)
heavy: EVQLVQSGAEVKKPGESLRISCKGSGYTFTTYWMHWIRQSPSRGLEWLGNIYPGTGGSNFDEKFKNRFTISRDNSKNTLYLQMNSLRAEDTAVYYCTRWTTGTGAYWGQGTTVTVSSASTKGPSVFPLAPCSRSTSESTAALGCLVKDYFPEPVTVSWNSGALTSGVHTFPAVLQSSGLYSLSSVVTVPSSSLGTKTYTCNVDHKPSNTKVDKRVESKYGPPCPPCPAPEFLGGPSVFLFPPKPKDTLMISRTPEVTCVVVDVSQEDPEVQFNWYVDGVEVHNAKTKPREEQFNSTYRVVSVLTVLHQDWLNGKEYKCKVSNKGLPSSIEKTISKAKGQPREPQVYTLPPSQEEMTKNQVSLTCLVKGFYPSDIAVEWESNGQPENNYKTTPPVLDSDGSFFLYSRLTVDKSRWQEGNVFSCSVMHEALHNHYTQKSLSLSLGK
light: EIVLTQSPATLSLSPGERATLSCKSSQSLLDSGNQKNFLTWYQQKPGQAPRLLIYWASTRESGVPSRFSGSGSGTDFTFTISSLEAEDAATYYCQNDYSYPYTFGQGTKVEIKRTVAAPSVFIFPPSDEQLKSGTASVVCLLNNFYPREAKVQWKVDNALQSGNSQESVTEQDSKDSTYSLSSTLTLSKADYEKHKVYACEVTHQGLSSPVTKSFNRGEC
notes: Humanized mAb
B6: BAP049-hum11 (antibody, human IgG4 S228P, kappa)
heavy: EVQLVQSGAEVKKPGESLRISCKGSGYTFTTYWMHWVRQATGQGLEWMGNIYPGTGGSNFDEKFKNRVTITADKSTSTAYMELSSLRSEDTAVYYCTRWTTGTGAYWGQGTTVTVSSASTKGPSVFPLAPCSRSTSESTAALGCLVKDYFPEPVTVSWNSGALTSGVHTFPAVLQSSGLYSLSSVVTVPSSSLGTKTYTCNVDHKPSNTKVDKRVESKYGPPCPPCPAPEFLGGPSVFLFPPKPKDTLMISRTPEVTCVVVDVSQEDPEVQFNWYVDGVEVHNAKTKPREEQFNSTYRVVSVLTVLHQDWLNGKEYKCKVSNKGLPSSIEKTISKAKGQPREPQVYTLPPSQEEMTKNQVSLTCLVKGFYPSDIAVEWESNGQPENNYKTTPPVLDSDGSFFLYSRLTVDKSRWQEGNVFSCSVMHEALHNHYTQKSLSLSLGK
light: B5 light
notes: Humanized mAb
B7: BAP049-hum08 (antibody, human IgG4 S228P, kappa)
heavy: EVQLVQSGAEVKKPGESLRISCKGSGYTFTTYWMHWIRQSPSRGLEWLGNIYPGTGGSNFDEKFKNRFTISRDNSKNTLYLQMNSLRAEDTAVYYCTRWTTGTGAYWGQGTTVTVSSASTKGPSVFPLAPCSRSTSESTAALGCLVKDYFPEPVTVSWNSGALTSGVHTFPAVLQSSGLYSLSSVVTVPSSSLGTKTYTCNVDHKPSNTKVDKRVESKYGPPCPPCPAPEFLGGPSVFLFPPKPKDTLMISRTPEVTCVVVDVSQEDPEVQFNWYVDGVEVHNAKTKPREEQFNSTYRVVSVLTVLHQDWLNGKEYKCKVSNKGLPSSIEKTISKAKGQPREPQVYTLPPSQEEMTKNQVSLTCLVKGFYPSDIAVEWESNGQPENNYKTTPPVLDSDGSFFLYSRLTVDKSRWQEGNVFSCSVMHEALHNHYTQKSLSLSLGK
light: B5 light with A9D, T10F, L11Q, L13V, S14T, G16K, R18K, A19V, L21I, S22T
notes: Humanized mAb
B8: BAP049-hum14 (antibody, human IgG4 S228P, kappa)
heavy chain: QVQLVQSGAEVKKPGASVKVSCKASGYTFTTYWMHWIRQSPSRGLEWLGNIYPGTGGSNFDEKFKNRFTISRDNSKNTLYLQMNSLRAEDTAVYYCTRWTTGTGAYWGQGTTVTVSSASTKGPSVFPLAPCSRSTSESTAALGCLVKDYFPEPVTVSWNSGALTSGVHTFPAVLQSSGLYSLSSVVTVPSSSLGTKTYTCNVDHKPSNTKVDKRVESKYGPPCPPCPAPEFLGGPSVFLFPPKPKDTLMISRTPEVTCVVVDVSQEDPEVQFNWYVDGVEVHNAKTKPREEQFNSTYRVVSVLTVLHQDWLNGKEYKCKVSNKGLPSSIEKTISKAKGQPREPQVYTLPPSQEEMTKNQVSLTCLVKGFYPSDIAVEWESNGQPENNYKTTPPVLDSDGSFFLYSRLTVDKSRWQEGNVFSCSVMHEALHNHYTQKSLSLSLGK
light chain: B5 light
notes: also called Clone No. 14
B9: BAP049-hum15 (antibody, human IgG4 S228P, kappa)
heavy chain: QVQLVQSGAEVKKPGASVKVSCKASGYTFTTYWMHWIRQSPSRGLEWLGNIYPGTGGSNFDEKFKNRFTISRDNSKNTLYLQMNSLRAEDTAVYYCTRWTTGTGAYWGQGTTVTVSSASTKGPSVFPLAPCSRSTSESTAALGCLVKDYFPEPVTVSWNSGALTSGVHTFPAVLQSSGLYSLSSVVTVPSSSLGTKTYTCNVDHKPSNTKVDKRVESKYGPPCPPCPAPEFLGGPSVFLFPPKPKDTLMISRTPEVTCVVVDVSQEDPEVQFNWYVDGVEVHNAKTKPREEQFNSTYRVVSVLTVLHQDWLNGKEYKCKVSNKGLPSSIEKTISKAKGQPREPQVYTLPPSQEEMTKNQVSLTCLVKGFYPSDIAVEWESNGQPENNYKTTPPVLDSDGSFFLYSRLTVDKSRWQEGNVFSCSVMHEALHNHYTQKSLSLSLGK
light chain: B5 light with A9D, T10F, L11Q, L13V, S14T, G16K, R18K, A19V, L21I, S22T
notes: also called Clone No. 15
B10: BAP049-hum01 (antibody, human IgG4 S228P, kappa, V domains shown)
VH: EVQLVQSGAEVKKPGESLRISCKGSGYTFTTYWMHWVRQATGQGLEWMGNIYPGTGGSNFDEKFKNRVTITADKSTSTAYMELSSLRSEDTAVYYCTRWTTGTGAYWGQGTTVTVSS
VL: EIVLTQSPATLSLSPGERATLSCKSSQSLLDSGNQKNFLTWYQQKPGQAPRLLIYWASTRESGVPSRFSGSGSGTEFTLTISSLQPDDFATYYCQNDYSYPYTFGQGTKVEIKR
notes: Humanized mAb
B11: BAP049-hum07 (antibody, human IgG4 S228P, kappa)
heavy chain: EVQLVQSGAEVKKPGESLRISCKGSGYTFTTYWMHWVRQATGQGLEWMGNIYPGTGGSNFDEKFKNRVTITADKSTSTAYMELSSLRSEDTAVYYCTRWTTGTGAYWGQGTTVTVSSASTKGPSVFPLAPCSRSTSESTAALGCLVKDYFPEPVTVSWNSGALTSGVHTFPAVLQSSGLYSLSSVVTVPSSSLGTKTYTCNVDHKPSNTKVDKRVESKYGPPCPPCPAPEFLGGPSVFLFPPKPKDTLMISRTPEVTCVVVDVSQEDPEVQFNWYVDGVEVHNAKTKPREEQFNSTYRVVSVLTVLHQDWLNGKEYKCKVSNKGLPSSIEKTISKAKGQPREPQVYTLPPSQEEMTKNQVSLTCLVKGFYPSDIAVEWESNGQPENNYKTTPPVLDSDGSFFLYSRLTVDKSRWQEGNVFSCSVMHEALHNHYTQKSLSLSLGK
light chain: B5 light with Q48K, R51K
notes: also called Clone No. 7
B12: BAP049-hum06 (antibody, human IgG4 S228P, kappa)
heavy chain: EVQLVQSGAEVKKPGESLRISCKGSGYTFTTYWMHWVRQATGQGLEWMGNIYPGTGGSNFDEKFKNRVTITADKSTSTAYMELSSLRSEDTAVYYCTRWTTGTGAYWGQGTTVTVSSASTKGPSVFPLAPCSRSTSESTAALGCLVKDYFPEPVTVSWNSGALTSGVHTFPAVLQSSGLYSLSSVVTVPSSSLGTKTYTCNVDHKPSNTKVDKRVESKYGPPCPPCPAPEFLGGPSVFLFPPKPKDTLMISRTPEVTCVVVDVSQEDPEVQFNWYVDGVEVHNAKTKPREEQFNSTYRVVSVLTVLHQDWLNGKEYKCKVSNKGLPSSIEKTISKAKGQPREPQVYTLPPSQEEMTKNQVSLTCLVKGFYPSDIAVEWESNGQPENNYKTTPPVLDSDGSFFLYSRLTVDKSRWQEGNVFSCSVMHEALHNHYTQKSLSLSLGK
light chain: B1 light chain with V2I, S7T, L15P, Q17E, K48Q, K51R
notes: also called Clone No. 6
B13: BAP049-hum04 (antibody, human IgG4 S228P, kappa, V domains shown)
VH: B4 VH
VL: B10 VL with Q48K, R51K, E76D, L79F, D87E, F89I
notes: also called Clone No. 4
B14: BAP049-hum05 (antibody, human IgG4 S228P, kappa, V domains shown)
VH: B10 VH
VL: B10 VL with Q48K, R51K, E76D, L79F, D87E, F89I
notes: Humanized mAb
B15: BAP049-hum09 (antibody, human IgG4 S228P, kappa)
heavy: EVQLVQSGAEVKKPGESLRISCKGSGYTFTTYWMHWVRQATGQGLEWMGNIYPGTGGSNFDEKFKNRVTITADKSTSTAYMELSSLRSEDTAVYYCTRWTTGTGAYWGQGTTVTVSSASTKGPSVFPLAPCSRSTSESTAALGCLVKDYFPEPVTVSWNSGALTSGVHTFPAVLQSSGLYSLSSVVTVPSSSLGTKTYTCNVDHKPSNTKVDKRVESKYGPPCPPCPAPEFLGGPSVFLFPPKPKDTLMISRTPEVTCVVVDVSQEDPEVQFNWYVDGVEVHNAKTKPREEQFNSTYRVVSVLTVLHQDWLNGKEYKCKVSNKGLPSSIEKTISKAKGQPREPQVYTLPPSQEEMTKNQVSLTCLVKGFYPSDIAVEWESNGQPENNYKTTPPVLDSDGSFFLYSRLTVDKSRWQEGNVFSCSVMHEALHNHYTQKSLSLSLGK
light: B5 light with A9D, T10F, L11Q, L13V, S14T, G16K, R18K, A19V, L21I, S22T
notes: Humanized mAb
B16: BAP049-hum16 (antibody, human IgG4 S228P, kappa, V domains shown)
VH: B4 VH with I37V, S40A, S42G, R43Q, L48M
VL: EIVLTQSPDFQSVTPKEKVTITCKSSQSLLDSGNQKNFLTWYQQKPGQAPRLLIYWASTRESGVPSRFSGSGSGTDFTFTISSLEAEDAATYYCQNDYSYPYTFGQGTKVEIKR
notes: also called Clone No. 16
B17: BAP049-hum12 (antibody, human IgG4 S228P, kappa, V domains shown)
VH: B10 VH
VL: DIQMTQSPSSLSASVGDRVTITCKSSQSLLDSGNQKNFLTWYLQKPGQSPQLLIYWASTRESGVPSRFSGSGSGTDFTFTISSLEAEDAATYYCQNDYSYPYTFGQGTKVEIKR
notes: also called Clone No. 12
B18: BAP049-hum02 (antibody, human IgG4 S228P, kappa, V domains shown)
VH: B10 VH
VL: B4 VL
notes: also called Clone No. 2

How the values were obtained:
[1] = biological target: T1, PD-1 on PD-1-expressing 300.19 cells (UniProt Q15116 25-288, limits assumed); test: rank among the 16 humanized clones in competition binding against labeled murine mAb BAP049, 2nd exp. (FIGURE 6B)
T1 construct: whole, on cells

[2] = biological target: T1, PD-1 on PD-1-expressing 300.19 cells; test: rank among the 16 humanized clones in competition binding against labeled murine mAb BAP049, 1st exp. (FIGURE 6A)
[3] = biological target: T2, Programmed Death 1 (PD-1) (UniProt Q15116 25-167, limits assumed); test: rank among the 16 humanized clones by FACS data (order agrees with the 200 ng/ml bars of FIGURE 4, 1 = highest)
[4] = biological target: T2, Programmed Death 1 (PD-1); test: FACS ligand blocking: mAb titrated, signal of ligand-Ig bound to PD-1; legend paragraph 46 names PD-L1-Ig and PD-L2-Ig as blocked ligands for FIG. 8A; cells not named

T2 sequence (Q15116 25-167 limits assumed): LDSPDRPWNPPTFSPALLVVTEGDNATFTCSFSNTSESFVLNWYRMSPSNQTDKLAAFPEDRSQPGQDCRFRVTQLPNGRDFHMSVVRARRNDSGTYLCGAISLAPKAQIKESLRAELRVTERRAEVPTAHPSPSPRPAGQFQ
T1 sequence (Q15116 25-288 limits assumed): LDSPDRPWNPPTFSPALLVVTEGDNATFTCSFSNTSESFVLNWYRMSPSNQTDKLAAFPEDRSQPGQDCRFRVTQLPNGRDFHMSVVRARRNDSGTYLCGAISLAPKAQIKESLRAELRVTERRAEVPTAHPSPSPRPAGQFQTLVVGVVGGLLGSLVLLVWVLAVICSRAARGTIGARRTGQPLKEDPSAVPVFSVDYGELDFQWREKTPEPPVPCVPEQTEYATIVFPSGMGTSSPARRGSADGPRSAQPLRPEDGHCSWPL

| Binder | Competition Binding 2nd exp. [1] | Competition Binding 1st exp. [2] | Ranking FACS data [3] | IC50 (read off the curve) [4] |
| --- | --- | --- | --- | --- |
| B1 | 1 | 1 | 6 |  |
| B2 |  |  |  | ~0.8 µg/mL |
| B3 |  |  |  | ~0.6 µg/mL |
| B4 | 14 | 8 | 7 |  |
| B5 | > 4 | 6 | 7 | ~1 µg/mL |
| B6 | > 4 | 4 | 6 |  |
| B7 | 4 | 7 | 7 |  |
| B8 | 15 | 7 | 16 |  |
| B9 | 15 | 7 | 6 |  |
| B10 | 2 | 7 | 2 | ~1 µg/mL |
| B11 | > 4 | 7 | 4 |  |
| B12 | 3 | 7 | 1 |  |
| B13 | 15 | 15 | 14 |  |
| B14 | > 4 | 5 | 5 | ~1 µg/mL |
| B15 | 4 | 2 | 7 |  |
| B16 | 15 | 16 | 15 |  |
| B17 | 16 | 8 | 3 |  |
| B18 | 2 | 3 | 6 |  |

From patent publication US20190175609A1 (Novartis, published 2019)
